Data: patent US20210253998A1 (published 2021)

Experiments:
[1] = target: T1, Mbd2 (endogenous, mouse ESCs) (mouse, UniProt Q9Z2E1 1-414, limits assumed); assay: co-IP with flag beads from ESCs carrying a Flag-tagged Mbd3 transgene, western blot
From the text: FIG. 61A—The present inventors established an ESC line carrying recovery of Flag-tagged Mbd3 transgene inserted in Mbd3^{-/-} ESC line. […] Moreover, Mbd3 interacts with Sall4 pluripotency reprogramming factor in ESCs. […] These assays recapitulate observation in many other cell lines where Mbd2 and Mbd3 form mutually exclusive complexes (Le Guezennec, X. et al. Mol. Cell. Biol. 26, 843-851, 2006; Aguilera, C. et al. Nature 469, 231-235, 2011).

[2] = target: T1, Mbd2 (endogenous, mouse ESCs); assay: pull down of Mbd2 from a control ESC line, western blot
[3] = target: T2, Mta2 (endogenous, mouse cells) (mouse, UniProt Q9R190 1-668); assay: co-IP from a control ESC line, western blot
T2 sequence (looked up): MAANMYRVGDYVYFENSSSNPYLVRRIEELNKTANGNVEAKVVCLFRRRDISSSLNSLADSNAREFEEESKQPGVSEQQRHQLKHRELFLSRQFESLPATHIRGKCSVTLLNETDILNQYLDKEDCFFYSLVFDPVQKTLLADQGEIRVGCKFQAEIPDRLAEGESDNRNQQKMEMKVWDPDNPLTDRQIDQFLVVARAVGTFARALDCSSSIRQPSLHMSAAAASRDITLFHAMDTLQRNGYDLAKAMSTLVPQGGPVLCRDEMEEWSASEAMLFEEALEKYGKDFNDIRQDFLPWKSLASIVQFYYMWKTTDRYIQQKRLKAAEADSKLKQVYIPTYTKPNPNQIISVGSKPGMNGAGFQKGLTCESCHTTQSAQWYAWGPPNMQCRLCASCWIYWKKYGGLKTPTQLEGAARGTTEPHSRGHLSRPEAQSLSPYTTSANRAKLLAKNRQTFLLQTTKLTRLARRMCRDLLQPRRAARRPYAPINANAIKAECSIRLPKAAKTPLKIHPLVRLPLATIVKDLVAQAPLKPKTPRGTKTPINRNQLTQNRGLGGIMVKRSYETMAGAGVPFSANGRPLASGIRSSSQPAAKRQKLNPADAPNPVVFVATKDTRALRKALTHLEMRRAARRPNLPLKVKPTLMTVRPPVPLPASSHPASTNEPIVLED

T1 sequence (Q9Z2E1 whole entry): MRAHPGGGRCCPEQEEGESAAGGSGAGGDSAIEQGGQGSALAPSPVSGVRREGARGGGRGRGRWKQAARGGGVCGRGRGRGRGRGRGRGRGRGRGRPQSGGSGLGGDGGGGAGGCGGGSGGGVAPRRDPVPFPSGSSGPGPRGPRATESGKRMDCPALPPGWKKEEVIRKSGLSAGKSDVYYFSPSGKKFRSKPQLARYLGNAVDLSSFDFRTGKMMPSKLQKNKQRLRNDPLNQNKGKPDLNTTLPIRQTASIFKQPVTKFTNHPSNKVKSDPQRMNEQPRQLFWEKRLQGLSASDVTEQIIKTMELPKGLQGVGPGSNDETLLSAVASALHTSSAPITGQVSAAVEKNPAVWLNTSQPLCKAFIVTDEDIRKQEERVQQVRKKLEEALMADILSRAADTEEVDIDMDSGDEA

B1: Flag-tagged Mbd3 (other)
chain: MERKRWECPALPQGWEREEVPRRSGLSAGHRDVFYYSPSGKKFRSKPQLARYLGGSMDLSTFDFRTGKMLMSKMNKSRQRVRYDSSNQVKGKPDLNTALPVRQTASIFKQPVTKITNHPSNKVKSDPQKAVDQPRQLFWEKKLSGLNAFDIAEELVKTMDLPKGLQGVGPGCTDETLLSAIASALHTSTMPITGQLSAAVEKNPGVWLNTTQPLCKAFMVTDEDIRKQEELVQQVRKRLEEALMADMLAHVEELARDGEAPLDKACAEDDDEEDEEEEEEEPDPDPEMEHV
notes: also called pCaggs-Flag-Mbd3; Flag-tagged Mbd3 transgene; not shown: Flag tag
- binding result [1]: no binding

B2: Mbd3 (endogenous, mouse cells) (other, UniProt Q9Z2D8 1-285, looked up)
chain: MERKRWECPALPQGWEREEVPRRSGLSAGHRDVFYYSPSGKKFRSKPQLARYLGGSMDLSTFDFRTGKMLMNKMNKSRQRVRYDSSNQVKGKPDLNTALPVRQTASIFKQPVTKITNHPSNKVKSDPQKAVDQPRQLFWEKKLSGLSAFDIAEELVRTMDLPKGLQGVGPGCTDETLLSAIASALHTSTLPITGQLSAAVEKNPGVWLNTAQPLCKAFMVTDDDIRKQEELVQQVRKRLEEALMADMLAHVEELARDGEAPLDKACAEEEEEEEEEEEEPEPERV
- binding result [2]: no binding
- binding result [3]: binds
